According to patent US20090252749A1:
“And” between values parts separate entries of the source, which are not always exact repeats. Identical values can stand only once.

Target: B7 protein on the antigen presenting cell (Daudi B cells)
Assay: cell-based or functional assay

CTLA4^A29YL104E-Ig (Fc fusion)
EC50 (ng/mL), human IL-2 promoter mediated luciferase activity: 19.1 ng/mL and 21.5 ng/mL and 21.8 ng/mL
Lower Asymptote (CPS), human IL-2 promoter mediated luciferase activity: 27000 CPS and 30000 CPS and 29000 CPS
Upper Asymptote (CPS), human IL-2 promoter mediated luciferase activity: 81000 CPS and 85000 CPS and 88000 CPS
